Assay results: patent US8580254B2, “Anti-IGF antibodies” (Boehringer Ingelheim International GmbH, priority 2007, dated 2013)

Experiments:
[1] = cynomolgus monkeys; cited from earlier work
[2] = humans; cited from earlier work
[3] = tested on: COLO 205 tumour cells xenografted into nude mice; assay: In vivo COLO 205 xenograft study; set-up: species or system athymic NMRI nude mice; details: 50 mg/kg 5FU alone, once weekly, FIG. 7
Experimental: Female athymic NMRI nude mice, 6-8 weeks old, are inoculated subcutaneously in the right flank with the COLO 205 human colon tumour-derived cell line (ATCC #CCL-222) (5×10^6 in 100 μl Ringer solution). Tumour cell growth is assessed by measuring tumour volume three times per week using calipers and the formula: π/6× larger diameter×(smaller diameter)^2. Treatment is administered intravenously to groups of ten mice and commenced when tumours have developed to a size of between 130 to 270 mm^3. The treatment schedule consists of two times weekly intravenous infusions of vehicle and antibody 40186 at a dose of 25 mg/kg for two treatment cycles. In combinations of antibody with 5FU, a dose of 50 mg/kg 5FU is administered weekly. The study is terminated when tumours reached an average size of 1500 mm^3. All animal experiments are performed according to the legal requirements in Austria as well as guidelines of the American Association for Laboratory Animal Science (AALAS).

[4] = tested on: insulin stimulated COLO 205 cell growth; assay: COLO 205 cell growth assay (CellTiter-Glo); format: cell-based, human; details: FIG. 3C
[5] = target: T1, biotinylated-IGF-1 binding to coated insulin-like growth factor-1 receptor (Homo sapiens, UniProt P05019); assay: ELISA neutralization of biotinylated IGF-1 binding to coated IGF-1R
T1 construct: Insulin-like growth factor-1 (IGF-1; a 70 amino-acid polypeptide); purchased R&D Systems (IGF-1R)
Experimental: To identify IGF antibodies that neutralize the ability of IGF-1 and IGF-2 to bind to the IGF-1R, an ELISA is established by coating plates with 1.5 μg/ml recombinant human IGF-1R (R&D Systems) which allows the binding of biotinylated IGF-1 and biotinylated IGF-2. Bound IGF-1 or IGF-2 is detected using alkaline phosphatase-conjugated streptavidin (1:10,000 dilution) (Roche). The neutralization potency of antibody Fab fragments is measured by adding 0.1-1 μg/ml of Fab to the wells coated with IGF-1R just prior to the addition of biotinylated IGF-1 or IGF-2 ligands. Antibody Fab fragments that block the binding of biotinylated ligand are identified by a reduction in fluorometric signal.

murine IGF-2 = target: T2, murine IGF-2 (Mus musculus, UniProt P09535); assay: ELISA binding titration of IgG1 antibodies; details: FIG. 1D
T2 construct: insulin-like growth factor-2 (IGF-2; a 67 amino-acid polypeptide); purchased R&D Systems
Experimental: (§1) ELISA screening for IGF-1 positive Fab clones is performed by coating Maxisorb 384-well plates overnight at 4° C. with 5 μg/ml recombinant human IGF-1 (Gropep) in 1× coating buffer (Gibco). Wells are washed with 1×TBS-T and blocked with 1× Blocking Buffer (Gibco) for 1 h at room temperature. Bacterial lysates containing antibody Fab fragments are added for 1.5 hr at room temperature, then washed five times with 1×TBS-T and detected with Alkaline Phosphatase-conjugated Affini Pure Goat Anti-HumanIgG F(ab′)2. Fragment Specific Mab (Dianova) at a dilution of 1:10 000 and visualized with Attophos Substrate (Roche). Fluorescence readings are performed on Tecan fluorescence reader at excitation 430 nm and emission 535 nm.
(§2) Cross-reactivity to recombinant human IGF-1, murine IGF-1, murine IGF-2 (R&D Systems), recombinant human IGF-2, rat IGF-1, rat IGF-2 (Gropep) and recombinant human insulin (Roche) is performed by ELISA using the same procedure as above, but with a 1 μg/ml coating dilution.

human IGF-1 = target: T3, human IGF-1 (Homo sapiens, UniProt P05019); assay: ELISA binding titration of IgG1 antibodies; details: FIG. 1A
T3 construct: Insulin-like growth factor-1 (IGF-1; a 70 amino-acid polypeptide)
Experimental: as §1, §2

murine IGF-1 = target: T4, murine IGF-1 (Mus musculus, UniProt P05017); assay: ELISA binding titration of IgG1 antibodies; details: FIG. 1C
T4 construct: Insulin-like growth factor-1 (IGF-1; a 70 amino-acid polypeptide); purchased R&D Systems
Experimental: as §1, §2

rat IGF-1 = target: T5, rat IGF-1 (Rattus norvegicus, UniProt P08025); assay: ELISA binding titration of IgG1 antibodies; details: FIG. 1E
T5 construct: Insulin-like growth factor-1 (IGF-1; a 70 amino-acid polypeptide)
T5 sequence (P08025 49-118 limits assumed): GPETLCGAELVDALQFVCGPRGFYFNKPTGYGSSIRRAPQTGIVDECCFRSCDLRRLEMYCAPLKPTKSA
Experimental: as §1, §2

rat IGF-2 = target: T6, rat IGF-2 (Rattus norvegicus, UniProt P01346); assay: ELISA binding titration of IgG1 antibodies; details: FIG. 1F
T6 construct: insulin-like growth factor-2 (IGF-2; a 67 amino-acid polypeptide)
T6 sequence (P01346 25-91 limits assumed): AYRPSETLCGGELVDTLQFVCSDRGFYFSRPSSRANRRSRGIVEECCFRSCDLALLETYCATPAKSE
Experimental: as §1, §2

human IGF-2 = target: T7, human IGF-2 (Homo sapiens, UniProt P01344); assay: ELISA binding titration of IgG1 antibodies; details: FIG. 1B
T7 construct: insulin-like growth factor-2 (IGF-2; a 67 amino-acid polypeptide)
Experimental: as §1, §2

[6] = tested on: IGF-2 stimulated COLO 205 cell growth; assay: COLO 205 cell growth assay (CellTiter-Glo); format: cell-based, human; details: 10 ng/ml IGF-2; antibody 5 and 30 μg/ml; 5 days; FIG. 3B
Experimental: (§3) The COLO 205 colon cancer-derived cell line (ATCC # CCL-222) is plated in 96-well plates at a cell density of 1000 cells per well in serum-free RPMI medium. 10 ng/ml of either IGF-1 or IGF-2 is added in the presence or absence of a control antibody or antibodies 40183 and 40186 at concentrations of 5 and 30 μg/ml. Cells are cultured for 5 days then the cell number in each well determined using the CellTiter-Glo luminescent cell viability assay (Promega). Luminescence was recorded using a XFluor GENios Pro 4.

[7] = tested on: IGF-1 stimulated COLO 205 cell growth; assay: COLO 205 cell growth assay (CellTiter-Glo); format: cell-based, human; details: 10 ng/ml IGF-1; antibody 5 and 30 μg/ml; 5 days; FIG. 3A
Experimental: as §3

bevacizumab
terminal half-life [1]: 8.57 ± 0.38 days
terminal half life [2]: approximately 20 days

O=c1[nH]cc(F)c(=O)[nH]1 [5FU, 5-fluorouracil, reference compound]
decrease in median tumour growth [3]: 30%

B1: antibody 40183: fully human IgG1/Igλ anti-IGF antibody; variable heavy SEQ ID NO:18, variable light SEQ ID NO:20; constant regions as 40186 (antibody, listed as Homo sapiens, V domains shown)
VH: QVELVESGGGLVQPGGSLRLSCAASGFTWSSFAMSWVRQAPGKGLEWVSYISYLGSYTGYADSVKGRFTISRDNSKNTLYLQMNSLRAEDTAVYYCARGTKFDYWGQGTLVTVSS
VL: DIVLTQPPSVSGAPGQRVTISCTGSSSNIGTYDVHWYQQLPGTAPKLLIYSNSKRPSGVPDRFSGSKSGTSASLAITGLQSEDEADYYCSITRVFGGGTKLTVLG
modifications: IgG1/lambda constant regions
notes: fully human IgG1/Igλ anti-IGF antibody; constant regions as 40186
effect on insulin induced COLO 205 cell growth [4]: no effect
IC50, inhibition of IGF-1 ligand binding to IGF-1R ([5]; FIG. 2): approximately 5 ng/ml
IC50 ([5]; FIG. 2, read-out: IC50, inhibition of IGF-1 ligand binding to IGF-1R): ~0.03 nM
binding to murine IGF-2 (ELISA) (murine IGF-2): concentration dependent binding
binding to human IGF-1 (ELISA) (human IGF-1): concentration dependent binding
binding to murine IGF-1 (ELISA) (murine IGF-1): concentration dependent binding
binding to rat IGF-1 (ELISA) (rat IGF-1): concentration dependent binding
binding to rat IGF-2 (ELISA) (rat IGF-2): concentration dependent binding
binding to human IGF-2 (ELISA) (human IGF-2): concentration dependent binding
effect on IGF-2 induced COLO 205 cell growth [6]: dose dependent inhibition
effect on IGF-1 induced COLO 205 cell growth [7]: dose dependent inhibition
